Reference: the supplement of paper PMC12042874
± gives the uncertainty stated by the source.

Assay: amyloid nucleation score (Sup35N fusion, yeast selection) (log enrichment); library NNK2; higher = more nucleation; inactive = no reads after selection
Outline: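 Psi-negative yeast expressed Sup35N fused to peptides of 20 random codons. They were induced 24 hours with 100 μM copper sulfate, grown 7 days at 30°C without adenine and uracil, and their plasmid inserts from input and output were Illumina-sequenced. The nucleation score is the DiMSum log enrichment of output over input reads, centred on the mode score of non-aggregating sequences. Sequences with under 100 input reads were excluded.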

Substance	amyloid nucleation score
SYYEFVVNLGKPAISVDSIT	0.349 ± 0.51
SSYRSEGSAYGMPYYPVSAS	1.06 ± 0.38
PGSNL	-0.037 ± 0.42
LSRFFFNRAPRKVTGLSVRY	0.96 ± 0.21
NICIN	inactive
KSNLCLNVHGSLGICPTHDL	0.178 ± 0.37
GGTVNYFNTLQRSMGNVESV	3.66 ± 0.046
TVFNR	0.236 ± 0.3
KILDWRGWSRGSGPLTSSTW	1.04 ± 0.38
ILLQLSIKRSVASSWLHNGR	3.61 ± 0.046
EGGLYNCYADTPTKVW	-1.07 ± 0.74
PTGYILESTYFTGQGKCAGL	-0.255 ± 1.1
YDNSYNWTATTFFGSRPDQS	4.55 ± 0.048
TIQAYICPLVSKAYWWGVEY	6.427 ± 0.032
IRSSSSGNQSQVFSPRDNPP	-0.381 ± 0.31
VYNLARSRSKAERVV	0.201 ± 1
EGTIWRVSW	0.392 ± 0.56
CNMFCFDCCLWFGGMRISST	8.315 ± 0.042
YNYLLLSMVPSSILSRSYVQ	-0.161 ± 1.1
RTGAMPSR	0.518 ± 0.51
SRSSHLM	0.073 ± 0.37
FRTQAF	1.16 ± 0.47
NYVNICFNLKFQVRHST	4.41 ± 0.089
TFMRKCIFMFLFVIFSFYSS	2.03 ± 0.11
VMTARHVLWSNLRVRPRGHD	0.867 ± 0.67

Substance	amyloid nucleation score
IVDGEKYDLVWMFEGHG	-0.536 ± 0.39
SLAFYTTYNNKILGNS	3.08 ± 0.069
CNVWDVSGDTFVTYGKDDRG	0.275 ± 0.25
SVGIVSSDRCLCLMSM	1.3 ± 0.39
GMRADSYCVRVGWFLCQNIN	7.002 ± 0.07
CWRFVSCNTNYNWTMQGFYY	-1.38 ± 1.1
VFKFMNMTYEYRAGKGITVH	inactive
CSFSYGMYSK	0.401 ± 0.23
SFNNVKLDGRSF	-0.59 ± 0.64
MCGKRGLRGWLKSDDVIIWV	5.19 ± 0.074
MGLPSIF	5.89 ± 0.092
VNWFRLWRTSQLLGRMMLCL	0.427 ± 0.56
PGSMPRRMSRCWSIGLDGEE	1.3 ± 0.32
LAFDK	inactive
SSWSSNQNSTYTLRSYTALH	5.2 ± 0.069
QIQVLGWSRKSLMDNKL	inactive
ITSLCYNVREFFWGRYVSRV	inactive
MDGVMRTRFFLDSDVFYSSH	3.69 ± 0.046
NDSSLCSSVRPIRMREEFDK	-0.099 ± 0.25
IMYCCVMLIFTMSVVEWGFT	-0.383 ± 1
DLRIREMDLGNWSWASR	0.653 ± 0.23
HHIRSFVETGGDTWWGRCSR	1.05 ± 0.21
STDIWVWFYRNFLMTANRN	inactive
HHKLLGWFDVEKGMPVRLWA	0.148 ± 0.43
DKSNLARFTSSKWS	0.426 ± 0.35

Substance	amyloid nucleation score
CNRMGFHMFDCF	inactive
DWLYMMKIARSPVVCRSRPS	0.38 ± 0.35
VYELCCLYMWLGHSNYAADM	5.33 ± 0.044
LKPCLRFFNIIT	3.44 ± 0.1
DDSTFKSRFVLGIPAICLGS	-1.37 ± 0.4
GWFGARRGMSIYRVHNWFVF	5.738 ± 0.048
WCFLT	-0.343 ± 1.1
FINCSHQCHSIGIRVLLNCR	0.915 ± 0.19
IQIFGVTYGSG	-0.007 ± 0.79
LNYDNFE	inactive
GINWSAVYR	-0.083 ± 0.24
CNIVNFMWAGENFR	5.48 ± 0.086
YGSFWTFRFLGT	4.12 ± 0.073
NLDEVFMFTSTHLVIPLESK	-1.6 ± 0.75
SHILSNVTYGLADVAFCACS	7.542 ± 0.067
MIYSVMFNVNGACTYNCRII	7.478 ± 0.055
TVGGNQTLSKLFWSFQGMFW	inactive
LSHPVIGGETKFPDDRNSQF	0.119 ± 0.19
PTGPNSGNCIVLCPSDKSHE	-0.363 ± 1.1
FSSLRILTERENFHLVSGVH	-1 ± 0.78
GLGSPLHIWNIFVRRWYHRY	inactive
RHNRC	-0.117 ± 0.79
RLNIGLLSVGYR	1.76 ± 0.17
ATYAGMFMEEMPEHYFVWGT	0.356 ± 0.74
KSSEHRGCLICTIIAVDL	6.977 ± 0.039

Substance	amyloid nucleation score
ACLITNRV	-0.288 ± 0.54
LKTLIKDPMLYGQALSRVFC	-0.737 ± 1.1
SNIYLVPRFIWP	-0.338 ± 0.61
QYSTFATNRVFSKAIMHLSG	-0.445 ± 0.36
MFDLQVRTWFWAF	3.03 ± 0.11
SWVVL	-0.563 ± 0.79
NSSMTRLGNTYLYHNNLHLV	-1.25 ± 0.76
MTRVSQFVVVP	1.69 ± 0.13
AHEYEPNFFRLCYKVRLWNA	-0.244 ± 0.22
KSDQLGCRLVDRGNCFSNRL	inactive
STGIGDNATFSYRISRYSVC	-0.492 ± 0.39
FVSRSLNSQGQWFRSMTECR	-0.517 ± 0.36
AYRRYDWYFMLVRLLY	0.795 ± 0.5
CASNQCTGP	3.28 ± 0.065
AAIMMN	-0.231 ± 0.62
LAWWFY	-0.325 ± 0.76
MIKYYVSHNPRWHSRWCNSQ	0.762 ± 0.43
HPHIFDLVVIYCQNGHV	6.92 ± 0.075
CVSSRDRG	0.439 ± 0.27
IREPSCWFLFFIKINAGDAV	inactive
DDCVPQWEYK	0.695 ± 0.42
NVFMRYTKFYMCLELGNCWG	-0.331 ± 0.5
IAAVDENCRVVCQIIFLSKV	inactive
RCLLKLDQV	-0.509 ± 0.4
YCGFQYLRWGVTVVNS	0.386 ± 0.19

Substance	amyloid nucleation score
YNKRVSWKYWMWHEYAMRGW	5.21 ± 0.057
FYAHYASHL	inactive
VWMHMSGSIIKSWFLVRCFS	-0.506 ± 0.38
IILRSCMYCGSLAIIKGWMS	2.91 ± 0.12
TNVINRCLSPCFGRSLFNIV	-0.805 ± 1.1
MSYQSINKKGFVVFGRKLLA	-0.512 ± 0.39
IDLFVCAESMDRRGVTIPRS	0.041 ± 0.35
AFMCWSYRS	6.393 ± 0.043
TNFYWY	3.23 ± 0.065
PHSRNRFLMFA	-0.488 ± 1
TRDCHYMVGRLMIEWFQSVW	-0.063 ± 0.21
TMSPCINASIFWDYA	3.08 ± 0.05
YAIICKPLDDPLRKGTRWRR	0.477 ± 0.4
MFLRRCSSRVDSKNGHSSKD	0.107 ± 0.39
MGHRFLLRRLSFIADLLV	-1.12 ± 1
QDEHIMVIVKLRRYTFNWEL	2.86 ± 0.11
SFLYLPDGTDMI	0.171 ± 0.29
LNTIFTKIIGFSA	-1.52 ± 0.49
SDVSREVKV	-0.038 ± 0.37
YQLIGFTKVIRFHSVELIEP	inactive
FVSGRVQLQASGLVRGNRWV	inactive
MYKGLISLNCVTSGTRSG	-1.07 ± 1.1
VWDNIVPPQLISRRS	-0.813 ± 1.1
FGESTSEGYA	3.33 ± 0.12
MYYYSSCKNVQKSHPSSRMQ	inactive

Substance	amyloid nucleation score
TVMLFIVHLPCDRTFYL	0.682 ± 0.45
YGTWKVRKCGLSIFGVGGPD	-0.303 ± 0.63
LLYCCLRWMDSIQGLRPAFE	1.1 ± 0.61
VLSLSVDFSCKRSCIMDTQV	3.95 ± 0.087
FLNHCDYCVVKSRLVDMKLN	-0.296 ± 0.76
NSRGN	-0.293 ± 0.56
FGSIHGGRDEGPFLLGSSNV	-0.675 ± 1.1
TLIDYYFYYCYGKSVDKAGL	-0.749 ± 0.45
HYAVTYLLGYSVGRVLYLWK	-0.509 ± 0.79
CLFSTCTRCCLSNGFNAITR	inactive
APRGLTFVQQSVSSIHLTAK	0.345 ± 0.39
FTIYCSYIFCQCWDTSEKSK	8.593 ± 0.044
LQVAARHHL	inactive
TETNRDWRLGDDW	5.293 ± 0.047
LTIDTTFVITSRYTCQLWQR	4.2 ± 0.056
MWLGLTRRMVITSCYN	0.461 ± 0.36
RVSMFKDLKYNGSYSWNSHG	-1.22 ± 0.41
GWPHKVEFKVNDIFMIFSMM	5.281 ± 0.034
NYDGVVVEDNVVGTRTSVAG	-0.007 ± 0.36
TLWLMPDLRTRLEAGCRYKT	-0.08 ± 0.44
YSGDRDTVLYHCTRVGAESV	0.109 ± 0.63
WSMFLLRMAPMRMLTTINFV	-0.504 ± 0.33
VNYSYVATSYRLVAILSNVW	-1.36 ± 0.62
GWVCRKRWVVLYMKICMIRR	-0.249 ± 0.21
VLPYSRVSTS	0.007 ± 0.28

Substance	amyloid nucleation score
FITHKDYLFAGQ	-1.16 ± 0.76
SNFVTVSGTPPHIILMCKDW	4.71 ± 0.055
SEGRATARQLLVKDTLFV	4.06 ± 0.088
MASAVNCESCISSGRVRFSG	0.547 ± 0.81
FLSSIGHLF	3.89 ± 0.12
ADQWGTRVWPGWEFVLEVAA	1.33 ± 0.31
FISNYLMPV	2.1 ± 0.12
FFCGMRPYVLVNCLCVFREN	6.374 ± 0.029
RFDRTRCETKSRLVRIR	0.084 ± 0.41
RHPGPAL	0.857 ± 0.25
LRLWHDYSFFLNKVSQVHSY	-1.12 ± 1.1
NKLLHHFILGAEESLLEIMY	inactive
DLYRYNMLKDVV	4.403 ± 0.037
TRSPEYNCRSVEGTVSDKDK	-0.832 ± 0.49
RKLIYSICKYVFALSVTIVG	-1.3 ± 0.32
DGFHQCAS	3.74 ± 0.089
RASMVDF	0.108 ± 0.65
IVDSIFTFGTRVDGWLGDCA	-0.259 ± 0.32
MTALSTVDWRYSAHFSS	inactive
LVAFLGQIEPSRTQRTLGSG	0.001 ± 0.39
FCGIGSPHYGRSAALQLRLM	0.708 ± 0.37
FREVSSLRCIIFLHITCRNS	0.647 ± 0.57
